Assay results taken from publication PMC5177502.

Biological target: Human recombinant FGF 1 (fibroblast growth factor 1) (human) (UniProt P05230)
Assay: native MS

Human recombinant FGF 1 (fibroblast growth factor 1) (from UniProt P05230 16-155) (natural protein)
stoichiometry N: 2
